Biological target: Growth Factor Receptor-bound 2 (GRB2), endogenous in HEK cells (human (endogenous in HEK), UniProt P62993 1-217)
Assay: co-IP

densitometry ratio SWELL1/GRB2 in the GRB2 immunoprecipitate: 0.31
B1: wild-type SWELL1 (SWELL1^WT), transiently expressed in HEK cells (natural protein, UniProt Q8IWT6 1-810, looked up)
chain: MIPVTELRYFADTQPAYRILKPWWDVFTDYISIVMLMIAVFGGTLQVTQDKMICLPCKWVTKDSCNDSFRGWAAPGPEPTYPNSTILPTPDTGPTGIKYDLDRHQYNYVDAVCYENRLHWFAKYFPYLVLLHTLIFLACSNFWFKFPRTSSKLEHFVSILLKCFDSPWTTRALSETVVEESDPKPAFSKMNGSMDKKSSTVSEDVEATVPMLQRTKSRIEQGIVDRSETGVLDKKEGEQAKALFEKVKKFRTHVEEGDIVYRLYMRQTIIKVIKFILIICYTVYYVHNIKFDVDCTVDIESLTGYRTYRCAHPLATLFKILASFYISLVIFYGLICMYTLWWMLRRSLKKYSFESIREESSYSDIPDVKNDFAFMLHLIDQYDPLYSKRFAVFLSEVSENKLRQLNLNNEWTLDKLRQRLTKNAQDKLELHLFMLSGIPDTVFDLVELEVLKLELIPDVTIPPSIAQLTGLKELWLYHTAAKIEAPALAFLRENLRALHIKFTDIKEIPLWIYSLKTLEELHLTGNLSAENNRYIVIDGLRELKRLKVLRLKSNLSKLPQVVTDVGVHLQKLSINNEGTKLIVLNSLKKMANLTELELIRCDLERIPHSIFSLHNLQEIDLKDNNLKTIEEIISFQHLHRLTCLKLWYNHIAYIPIQIGNLTNLERLYLNRNKIEKIPTQLFYCRKLRYLDLSHNNLTFLPADIGLLQNLQNLAITANRIETLPPELFQCRKLRALHLGNNVLQSLPSRVGELTNLTQIELRGNRLECLPVELGECPLLKRSGLVVEEDLFNTLPPEVKERLWRADKEQA

— paper PMC5415409 (Nature cell biology, 2017)
